The values that follow come from US5658784, “Nucleic acid encoding transcription factor p300 and uses of p300” (Dana-Farber Cancer Institute, Inc., dated 1997).

The target in this test is p300 (endogenous human E1A-associated 300 kD protein) (human). Nature of the test: co-immunoprecipitation with anti-E1A M73 from 35S labelled infected U-2 OS cells.

B1: E1A proteins of adenovirus dl646 (missing amino acids 30-85) (other)
chain: MRHIICHGGVITEEMAASLLDQLIEEVLAAPGSPEPPHLSRQPEQPEQRALGPVSMPNLVPEVIDLTCHEAGFPPSDDEDEEGEEFVLDYVEHPGHGCRSCHYHRRNTGDPDIMCSLCYMRTCGMFVYSPVSEPEPEPEPEPEPARPTRRPKMAPAILRRPTSPVSRECNSSTDSCDSGPSNTPPEIHPVVPLCPIKPVAVRVGGRRQAVECIEDLLNEPGQPLDLSCKRPRP
Regarding B1, the binding result is given as “no binding”.
